pEC50, pKd: −log10 of the molar value. Values joined by “and” are separate entries in the source; they are usually repeats but may differ in a detail not shown here. Equal entries are not always repeated.
Legend:
[1] = target: FcγRIIIa (from Sino Biological, also known as CD16a) (UniProt P08637); assay: BLI (Fortebio), FcγRIIIa on SA sensor, antibody 31.3-500 nM, 30 C, 1:1 fit
[2] = target: human NT5E(1-552)-his (human) (UniProt P21589); assay: BLI (Fortebio), antibody on Protein A sensor, antigen 3.125-200 nM, 37 C, 1:1 fit
[3] = target: human NT5E-Biotin (for NT5E, GenbankID: NP_002517.1, position: 1-552) (human) (UniProt P21589); assay: ELISA, NT5E-Biotin on streptavidin plate; antibody 0.333 ug/mL diluted 1:27
[4] = target: human NT5E-Biotin (for NT5E, GenbankID: NP_002517.1, position: 1-552) (human) (UniProt P21589); assay: ELISA, NT5E-Biotin on streptavidin plate; antibody 0.333 ug/mL diluted 1:9
[5] = target: human NT5E-Biotin (for NT5E, GenbankID: NP_002517.1, position: 1-552) (human) (UniProt P21589); assay: ELISA, NT5E-Biotin on streptavidin plate; antibody 0.333 ug/mL diluted 1:729
[6] = target: human NT5E-Biotin (for NT5E, GenbankID: NP_002517.1, position: 1-552) (human) (UniProt P21589); assay: ELISA, NT5E-Biotin on streptavidin plate; antibody 0.333 ug/mL diluted 1:243
[7] = target: human NT5E-Biotin (for NT5E, GenbankID: NP_002517.1, position: 1-552) (human) (UniProt P21589); assay: ELISA, NT5E-Biotin on streptavidin plate; antibody 0.333 ug/mL diluted 1:3
[8] = target: CD73 endogenously expressed on the cell surface (MDA-MB-231 cells; U87-MG cells) (UniProt P21589); assay: flow cytometry on MDA-MB-231 cells; antibody 0.14 nM
[9] = target: human NT5E-Biotin (for NT5E, GenbankID: NP_002517.1, position: 1-552) (human) (UniProt P21589); assay: ELISA, NT5E-Biotin on streptavidin plate; antibody 0.333 ug/mL
[10] = target: CD73 endogenously expressed on the cell surface (MDA-MB-231 cells; U87-MG cells) (UniProt P21589); assay: flow cytometry on MDA-MB-231 cells
[11] = target: human NT5E-Biotin (for NT5E, GenbankID: NP_002517.1, position: 1-552) (human) (UniProt P21589); assay: ELISA, NT5E-Biotin on streptavidin plate
[12] = target: CD73 endogenously expressed on the cell surface (MDA-MB-231 cells; U87-MG cells) (UniProt P21589); assay: flow cytometry on MDA-MB-231 cells; antibody 0.41 nM
[13] = target: human NT5E-Biotin (for NT5E, GenbankID: NP_002517.1, position: 1-552) (human) (UniProt P21589); assay: ELISA, NT5E-Biotin on streptavidin plate; antibody 0.333 ug/mL diluted 1:81

FcγRIIIa (from Sino Biological, also known as CD16a), sequence (P08637 17-208 limits assumed): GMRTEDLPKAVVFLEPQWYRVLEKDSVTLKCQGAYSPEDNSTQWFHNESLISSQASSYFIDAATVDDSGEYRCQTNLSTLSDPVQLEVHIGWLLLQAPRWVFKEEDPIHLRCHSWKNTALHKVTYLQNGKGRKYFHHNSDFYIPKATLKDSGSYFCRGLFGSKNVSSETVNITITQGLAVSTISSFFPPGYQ
CD73 endogenously expressed on the cell surface (MDA-MB-231 cells; U87-MG cells), sequence (P21589 27-549 limits assumed): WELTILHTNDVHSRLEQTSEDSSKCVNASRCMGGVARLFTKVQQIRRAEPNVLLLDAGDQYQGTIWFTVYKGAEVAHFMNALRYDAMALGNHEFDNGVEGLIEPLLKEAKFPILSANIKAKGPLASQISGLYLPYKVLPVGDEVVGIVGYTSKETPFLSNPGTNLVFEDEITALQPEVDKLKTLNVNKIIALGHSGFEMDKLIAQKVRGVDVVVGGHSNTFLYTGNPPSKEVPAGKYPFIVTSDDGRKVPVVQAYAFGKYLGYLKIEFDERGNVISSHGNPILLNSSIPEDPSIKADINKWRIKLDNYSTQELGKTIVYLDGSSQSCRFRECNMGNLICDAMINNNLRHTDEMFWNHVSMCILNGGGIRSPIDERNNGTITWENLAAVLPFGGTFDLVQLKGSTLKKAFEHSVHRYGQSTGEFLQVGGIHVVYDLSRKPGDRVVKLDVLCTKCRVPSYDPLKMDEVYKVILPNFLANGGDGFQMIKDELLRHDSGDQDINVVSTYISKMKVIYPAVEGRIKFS
human NT5E(1-552)-his (human), sequence (P21589 27-552 limits assumed, form in doubt): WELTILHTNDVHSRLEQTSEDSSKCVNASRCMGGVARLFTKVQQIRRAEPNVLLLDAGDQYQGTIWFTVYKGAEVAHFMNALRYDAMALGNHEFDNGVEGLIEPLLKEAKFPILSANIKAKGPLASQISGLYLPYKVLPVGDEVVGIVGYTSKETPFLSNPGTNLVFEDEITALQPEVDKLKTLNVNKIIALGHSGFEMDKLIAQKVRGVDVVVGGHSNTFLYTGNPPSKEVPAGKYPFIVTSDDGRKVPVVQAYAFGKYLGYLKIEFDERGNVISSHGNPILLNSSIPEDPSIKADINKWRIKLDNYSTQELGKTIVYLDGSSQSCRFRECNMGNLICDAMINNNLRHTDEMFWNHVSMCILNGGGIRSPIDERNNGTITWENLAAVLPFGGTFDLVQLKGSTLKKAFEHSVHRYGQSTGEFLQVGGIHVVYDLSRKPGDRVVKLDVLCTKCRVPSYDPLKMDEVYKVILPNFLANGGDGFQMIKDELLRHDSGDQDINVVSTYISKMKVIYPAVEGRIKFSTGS
human NT5E-Biotin (for NT5E, GenbankID: NP_002517.1, position: 1-552) (human), sequence (P21589 27-552 limits assumed, form in doubt): as above

Substance: Wild-type IgG1 antibody
- pKd [1]: 6.90
- koff [1]: 0.022 s⁻¹
- kon [1]: 176000 M⁻¹ s⁻¹

Substance: positive control antibody MEDI9447 (oleclumab)
- pKd [2]: 9.98
- S E (kon) [2]: 3200 M⁻¹ s⁻¹
- S E(kdis) [2]: 5.02e-06 s⁻¹
- koff [2]: 2.44e-05 s⁻¹
- kon [2]: 234000 M⁻¹ s⁻¹
- OD (450 nm) [3]: 1.77 and 1.74
- OD (450 nm) [4]: 2.27 and 2.28
- OD (450 nm) [5]: 0.272 and 0.275
- OD (450 nm) [6]: 0.536 and 0.528
- OD (450 nm) [7]: 2.57 and 2.6
- pKd [1]: 6.85
- koff [1]: 0.0342 s⁻¹
- kon [1]: 243000 M⁻¹ s⁻¹
- FACS fluorescence signal (read-out not given) [8]: 43.2
- OD (450 nm) [9]: 2.55 and 2.53
- pEC50 [10]: 8.84
- pEC50 [11]: 10.32
- FACS fluorescence signal (read-out not given) [12]: 91
- OD (450 nm) [13]: 1.06 and 1.03
